Results as given in patent US20230277625A1 (SIMCHA IL 18, published 2023).
Residue numbers refer to the chain shown, from its start.

T1: Human IL-18BP (amino acids 31-194), biotinylated (human, UniProt O95998 31-194, biotin on the AviTag (BirA ligase) where used biotinylated)
T1 construct: Soluble decoy receptor; also called hIL-18BP; recombinant IL-18BP
T1 sequence: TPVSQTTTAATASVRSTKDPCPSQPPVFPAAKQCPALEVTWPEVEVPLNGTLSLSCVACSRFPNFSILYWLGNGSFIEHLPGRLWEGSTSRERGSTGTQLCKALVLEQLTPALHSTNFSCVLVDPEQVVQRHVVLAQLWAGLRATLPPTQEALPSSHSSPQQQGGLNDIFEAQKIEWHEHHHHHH

T2: Human IL-18Rα ectodomain (amino acids 19-329), biotinylated (human, UniProt Q13478 19-329, biotin on the AviTag (BirA ligase))
T2 construct: range 19-329; Secreted from insect cells (gp67 signal peptide removed); also called hIL-18Rα; hIL18Rα
T2 sequence: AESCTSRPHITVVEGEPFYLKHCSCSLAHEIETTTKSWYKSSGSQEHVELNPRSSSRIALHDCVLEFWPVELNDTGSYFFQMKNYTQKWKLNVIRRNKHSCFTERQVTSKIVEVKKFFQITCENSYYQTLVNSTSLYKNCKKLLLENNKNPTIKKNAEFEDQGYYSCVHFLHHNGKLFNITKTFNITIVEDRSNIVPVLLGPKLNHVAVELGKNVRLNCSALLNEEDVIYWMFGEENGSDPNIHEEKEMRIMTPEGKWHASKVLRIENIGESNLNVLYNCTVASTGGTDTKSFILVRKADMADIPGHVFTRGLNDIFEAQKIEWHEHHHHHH

T3: IL-18 receptor (IL-18Rα / IL-18Rβ heterodimer) on HEK-Blue IL-18 reporter cells (UniProt Q13478 19-541; O95256 20-599, limits assumed)
T3 sequence (looked up) 1: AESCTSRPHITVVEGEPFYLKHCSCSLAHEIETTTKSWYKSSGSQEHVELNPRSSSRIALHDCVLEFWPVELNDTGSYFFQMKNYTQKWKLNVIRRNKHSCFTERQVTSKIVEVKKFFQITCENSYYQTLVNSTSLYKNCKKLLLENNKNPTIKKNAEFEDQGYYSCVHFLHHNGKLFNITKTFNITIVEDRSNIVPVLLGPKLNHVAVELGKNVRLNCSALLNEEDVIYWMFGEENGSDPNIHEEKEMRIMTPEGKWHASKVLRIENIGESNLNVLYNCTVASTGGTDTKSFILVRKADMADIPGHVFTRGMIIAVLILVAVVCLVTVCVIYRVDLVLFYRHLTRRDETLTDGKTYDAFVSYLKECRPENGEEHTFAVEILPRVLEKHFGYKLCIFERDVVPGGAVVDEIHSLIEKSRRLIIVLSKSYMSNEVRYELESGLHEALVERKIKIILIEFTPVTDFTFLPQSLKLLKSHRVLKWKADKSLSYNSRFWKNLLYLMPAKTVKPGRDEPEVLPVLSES
T3 sequence (looked up) 2: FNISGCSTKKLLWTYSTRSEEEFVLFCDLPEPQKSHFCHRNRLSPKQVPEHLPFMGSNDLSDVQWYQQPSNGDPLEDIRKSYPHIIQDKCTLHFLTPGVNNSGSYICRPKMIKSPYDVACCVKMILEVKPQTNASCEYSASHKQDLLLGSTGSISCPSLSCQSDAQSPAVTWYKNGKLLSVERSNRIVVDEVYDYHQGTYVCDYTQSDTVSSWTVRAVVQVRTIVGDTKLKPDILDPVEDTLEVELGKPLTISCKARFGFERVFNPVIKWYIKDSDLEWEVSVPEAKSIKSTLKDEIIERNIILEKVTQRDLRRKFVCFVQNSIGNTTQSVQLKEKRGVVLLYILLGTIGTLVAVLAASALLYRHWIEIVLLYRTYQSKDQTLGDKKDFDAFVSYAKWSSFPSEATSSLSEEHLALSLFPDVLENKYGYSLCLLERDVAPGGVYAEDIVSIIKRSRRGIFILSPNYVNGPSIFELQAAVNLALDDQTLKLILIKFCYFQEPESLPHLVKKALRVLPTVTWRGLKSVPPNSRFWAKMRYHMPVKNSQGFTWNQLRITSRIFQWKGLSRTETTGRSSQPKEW

B1: SEQ ID NO: 89 (second generation human DR-IL-18 variant 6-12) (ligand)
chain: YFGKLESKLSVIRNLNDQVLFIDQGNRPLFEDMTDSDCRDNAPRTIFIISKYSDSLARGLAVTISVKCEKISTLSCENKIISFKEMNPPDNIKDTKSDIIFFQRDVPGHSRKMQFESSSYEGYFLACEKERDLFKLILKKEDELGDRSIMFTVQNED
notes: Engineered variant; recombinant soluble analyte in SPR and cell assays
B2: SEQ ID NO: 91 (second generation human DR-IL-18 variant 6-29) (ligand)
chain: B1 chain with L56R, D105N, S110G
notes: as for B1

Legend:
[1] = biological target: T1, Human IL-18BP (amino acids 31-194), …; assay: SPR; KD(IL-18BP)/KD(IL-18Rα) normalized to WT IL-18; SPR; ratio from the bound KD BP >10,000 nM
Method: (§1) Surface Plasmon Resonance (SPR) was used to perform biophysical affinity measurements of second generation DR-IL-18 variants (binding to IL-18R vs IL-18BP). Experiments were conducted using a Biacore T100 instrument and carried out at 25° C. Biotinylated IL-18Rα or IL-18BP were immobilized onto a Biacore biotin capture chip (Series S CAP sensor chip, GE Healthcare) to yield an Rmax of ˜50 RU (IL-18Rα) or ˜10 RU (IL-18BP). Measurements were made with serial dilutions of the IL-18 variants in HEPES buffered Saline-P+ buffer (10 mM HEPES pH 7.4, 150 mM NaCl, 0.005% surfactant P20). The surface was regenerated by three 60-sec injections of regeneration buffer (3/4 (v/v) 8M guanidine hydrochloride with ¼ (v/v) 1M sodium hydroxide). Experiments were performed in multiple channels simultaneously for increased observations. All data were analyzed with the Biacore T100 evaluation software version 2.0 with a 1:1 Langmuir binding model.

[2] = biological target: T1, Human IL-18BP (amino acids 31-194), …; assay: on-yeast binding isotherms; KD ratio relative to WT IL-18; yeast-displayed variant; ratio normalized to WT, from the 20 µM placeholder
[3] = biological target: T2, Human IL-18Rα ectodomain (amino acids …); assay: on-yeast binding isotherm (flow cytometry), drawn summary table, IL18Rα (KD)
Method: Individual colonies of IL-18 yeast were grown overnight at 30° C. in SDCAA liquid media and induced in SGCAA liquid media for 1 day at 20° C. IL-18 display levels on yeast were verified by flow cytometry using an anti-cMyc tag antibody (anti-myc-PE; Cell Signaling Technologies). Receptor staining with biotinylated IL-18Rα (with or without IL-18R β) or biotinylated IL-18BP was performed in PBS supplemented with 0.5% BSA and 2 mM EDTA (PBE) on ice. All analysis was performed on a Sony SA3800 flow cytometer.

[4] = biological target: T2, Human IL-18Rα ectodomain (amino acids …); assay: SPR
[5] = biological target: T2, Human IL-18Rα ectodomain (amino acids …); assay: SPR (Biacore T100), hIL-18Rα as surface ligand; Exp 2
Method: as §1

[6] = biological target: T2, Human IL-18Rα ectodomain (amino acids …); assay: SPR, apparent KD, second value of the cell; Exp 1
Method: as §1

[7] = biological target: T2, Human IL-18Rα ectodomain (amino acids …); assay: SPR, apparent KD, first value of the cell; Exp 2
Method: as §1

[8] = biological target: T2, Human IL-18Rα ectodomain (amino acids …); assay: SPR (Biacore T100), hIL-18Rα as surface ligand, 1:1 Langmuir
Method: as §1

[9] = biological target: T1, Human IL-18BP (amino acids 31-194), …; assay: on-yeast binding isotherms; 20 µM used for NBD; printed without '>'; yeast-displayed variant; ratio computed with 20 µM put in for NBD
[10] = biological target: T3, IL-18 receptor (IL-18Rα / IL-18Rβ …); assay: cell-based or functional assay
[11] = biological target: T2, Human IL-18Rα ectodomain (amino acids …); assay: SPR (Biacore T100), hIL-18Rα as surface ligand; Exp 1
Method: as §1

[12] = biological target: T2, Human IL-18Rα ectodomain (amino acids …); assay: SPR, apparent KD, first value of the cell
Method: as §1

[13] = biological target: T2, Human IL-18Rα ectodomain (amino acids …); assay: SPR, apparent KD, second value of the cell
Method: as §1

[14] = biological target: T1, Human IL-18BP (amino acids 31-194), …; assay: SPR; KD(IL-18BP)/KD(IL-18Rα) normalized to WT IL-18; SPR; normalized ratio, a bound from KD BP >10,000 nM
Method: as §1

Binder | IL-18 BP:Rα Dissociation Constant Ratio [1] | Dissociation Constant Ratio normalized to WT IL-18 [2] | Kd [3] [nM] | Kd [4] [nM] | Kd [5] [nM] | Kd [6] [nM] | Kd [7] [nM] | koff [8] [s⁻¹] | kon [8] [M⁻¹ s⁻¹] | KD ratio IL-18BP/IL-18Rα [9] | EC50-#1 (M), HEK-Blue reporter [10] [M] | EC50-#2 (M), HEK-Blue reporter [10] [M] | Kd [11] [nM] | Kd [12] [nM] | Kd [13] [nM] | IL-18 BP:Rα Dissociation Constant Ratio [14]
B1 | > 9.32e+06 | > 17000 | 17 | 2.2 | 1.84 | 2.2 | 1.8 | 0.00091 | 495000 | > 1200 | 1.43e-10 | 5.44e-11 | 2.24 | – | – | –
B2 | – | – | 37 | 2.7 | 2.07 | – | – | 0.00119 | 575000 | – | – | – | 2.65 | 2.1 | 2.7 | > 7.59e+06
